What was measured:
[1] = target: T1, Biotinylated SARS-CoV-2 S protein RBD with a C-terminal AviTag (SARS-CoV-2, UniProt P0DTC2 319-541); experiment: BLI
[2] = target: T1, Biotinylated SARS-CoV-2 S protein RBD …; experiment: BLI; remark: listed apart in the source

B1: NIH-CoVnb-103 (VHH)
VHH: DVQLQESGGGLVQPGGSLRLSCAASGLTLDYYTIGWFRQAPGKEREGVSCISSSDDSTYYADSVKGRFTISRDNAKNTVYLQMNSLKPEDTAVYYCATAPGTYYKGSYYPMCHYYGMDYWGKGTQVTVSS
B1 was tested, and the Kd [1] was 9.43 nM and the koff [2] was 0.00286 s⁻¹.

B2: NIH-CoVnb-113 (VHH)
VHH: DVQLQESGGGLVQPGGSLRLSCAASGLTLDYYAIGWFRQAPGKEREGVSCISSSDGSTYYADSVKGRFTTSRDNAKNTVYLQMNSLKPEDTAVYYCAAVPSTYYSGTYYYTCHPGGMDYWGKGTLVTVSS
Binder B2 has a Kd [1] of 8.19 nM and a koff [2] of 0.000804 s⁻¹.

B3: NIH-CoVnb-108 (VHH)
VHH: DVQLQESGGGLVQPGGSLRLSCAASGFTLDYYAIGWFRQAPGKEREGVSCISNSGGSTYYADSVKGRFTTSRDNAKNTVYLQMNSLKPEDTAVYYCAAVPSTYYSGSYYYTCHPGGMDYWGKGTQVTVSS
B3 gave a Kd [1] of 26.6 nM and a koff [2] of 0.00109 s⁻¹.

B4: NIH-CoVnb-109 (VHH)
VHH: DVQLQESGGGLVQSGGSLRLSCAASGFTLDYYAIGWFRQAPGKEREGVSCITNSDGSTYYADSVKGRFTTSRDNAKNTVYLQMNSLKPEDTAVYYCASFPSTYYSGSYYYTCHPGGMDYWGKGTQVTVSS
In the case of B4, the Kd [1] is reported as 58.5 nM and the koff [2] is reported as 0.00188 s⁻¹.

Source: PMC7755911 (2020)
